This note sets out measurements from paper PMC8802549 (The Journal of Immunology Author Choice, 2022).

Read-outs that look alike come from different tables or passages of the source.

For test [1], the target named is BoLA-1*023:01 MHC class I molecule with bovine β2-microglobulin (bovine) (UniProt P01888). Briefly: ELISA. In general terms: An ELISA detects its analyte on a solid surface through an enzyme-linked reagent.
Test [2] relates to BoLA-1*023:01 class I molecule. Briefly: Peptide–MHC class I binding assay (ELISA of p-MHC monomer folding). To be noted: for Peptide binding to BoLA-1*023:01 (folding in ELISA), in words: Fig. 1B, 10-mer and peptides with 1 or 2 aa deletions at N- or C-terminal end; for Kd: 25 nM BoLA-1*023:01, 150 nM bovine β2m, peptide 0–40 μM, 48 h 18°C, one-site specific binding fit, representative experiment, duplicates. On the set-up: species or system bovine. The procedure:
Folding of p-MHC class I complexes was assessed with an ELISA assay as described by Svitek et al. ([34]). The BoLA-1*023:01 molecule (25 nM) and bovine β2m molecule (150 nM) were incubated in a 96-well plate with Tp9_67–75 (Muguga, G1 to A9, or V2 to V9) peptides (Mimotopes, purity: 95%) at various peptide concentrations ranging from 0 to 40 μM. After an incubation of 48 h at 18°C, the complexes were transferred to another 96-well plate precoated with streptavidin (catalog number [cat #] 436014; Nunc), which captures biotinylated heavy chains, and incubated for 3 h at 4°C. After washing, the W6/32 mAb (cat # SC-32235; Santa Cruz Biotechnology, TX), which binds to a monomorphic epitope on β2m, but only when it is incorporated in p-MHC class I complexes, was added for 1 h at 4°C. After washing, anti-mouse IgG coupled to peroxidase (cat # A9917-1ML; Sigma-Aldrich) was added to the plate followed by incubation for an hour at room temperature and further rounds of washes. Colorimetric change was performed by adding the TMB Plus2 “Ready to Use” Substrate (cat # 4395H; Kem En Tec) for 10 min at room temperature. The reaction was stopped by adding H2SO4 (0.3 M), and OD was measured using a Synergy HT ELISA plate reader (BioTek) at 450 nm. Kd values were determined by performing a nonlinear regression curve fit (One-Site Specific Binding) with GraphPad Prism (version 6).
Statistical analyses of data were performed with GraphPad Prism version 6 software. To determine the Kd, binding, and half-life values, we performed a nonlinear regression curve fit (One-Site, Specific binding). R^2 values and confidence intervals were generated to assess curve fit and differences between Kd values. When comparing data generated with the ELISPOT assay with a single peptide concentration, we performed a one-way ANOVA with Dunnett’s correction for multiple comparison. When comparing data generated with the ELISPOT assay with varying peptide concentrations, we performed a two-way ANOVA with Dunnett’s correction for multiple comparison (main column effect). All datasets were compared with the data obtained with the Tp9_67–75 Muguga epitope. All experiments were repeated twice using duplicate measurements.

The subject of another test is CTL 495. Briefly: IFN-γ ELISPOT with Tp9-specific CTL line 495. It counts as cell-based, cattle. To be noted: for IFN-γ ELISPOT stimulation of CTL 495, in words: Supplemental Fig. 1, minimal epitope peptides, relatively high peptide concentration; for IFN-γ ELISPOT response of CTL 495 vs Tp9_67–75 Muguga, in words: Fig. 3A, alanine/glycine-substituted peptides, 2.5 × 10^4 CD8+ cells/well, 20 h 37°C, reduced = SFU >15% lower than Tp9_67–75. The text has this:
(§1) Autologous T. parva Muguga-infected lymphocyte (TpM) lines from animals BF092, 4003, and 495 and TpM-specific bulk CTLs lines after immunization by ITM were established as previously described ([37]). In brief, PBMCs harvested from immunized animals were stimulated at least three times, at weekly intervals, by coculturing with irradiated autologous T. parva–infected cells (TpMs) at a ratio of 5–10:1 (TpMs:PBMC) in RPMI media containing 15% T cell growth factor ([38]). Cells were maintained in RPMI 1640 culture medium (Sigma-Aldrich) containing 10% heat-inactivated FCS (Life Technologies), 2 mM L-glutamine (Sigma-Aldrich), 1 mg/ml gentamicin (Carl-Roth), 100 UI/ml penicillin (Sigma-Aldrich), 100 mg/ml streptomycin (Sigma-Aldrich), 2-ME (BDH, final concentration: 50 μM ([39]); a detailed description of our protocols can be found in Ref. [40]). The CTL lines from 4003 (A14 homozygous) and 495 (A10/A14 heterozygous) were propagated by stimulating them with cesium-137–irradiated autologous TpM (the use of radioisotope and irradiator was per institutional radiation safety guidelines; the length of exposure for inhibiting replication was empirically determined and found to be optimal with an exposure of 30 min at a distance of 10 cm of the cesium-137 source at 265 rad/min using a top linear irradiator [Conservatome, Lyon, France]), at a ratio of 1:5–10 (CTL:TpMs), and supplementing the media with 2 ng/ml recombinant human IL-2 (Sigma) or 15% T cell growth factor. Cells were incubated at 37°C in a 5% CO2 humidified atmosphere. Both CTLs recognize the Tp9 Ag. CTL clone 8 was derived from the CTL 495 by limiting dilution.
IFN-γ ELISPOT assay was performed as previously described ([34]). In brief, a monoclonal anti-bovine IFN-γ Ab (cat # MCA1783; Serotec, Oxford, U.K.) was incubated overnight at 4°C on ELISPOT plates (cat # MAIPN4550; Millipore, Billerica, MA, USA) and then blocked with RPMI containing 10% heat-inactivated FCS for 2 h at 37°C. Peptides (purity: 95%; Mimotopes) were added at concentrations ranging from 0.1 to 1 μM and CD8^+ cells at 2.5 × 10^4 cells/well. The plates were incubated at 37°C for 20 h. Release of IFN-γ was monitored with primary rabbit polyclonal anti-bovine IFN-γ Ab (Sigma-Aldrich, St. Louis, MO, USA) and secondary alkaline phosphatase–conjugated monoclonal anti-rabbit IgG (cat # A2556; Sigma-Aldrich, St. Louis, MO). Development of plates was done by addition of the substrate solution Sigma Fast (BCIP/NBT, cat # B5655-25TAB; Sigma-Aldrich, St. Louis, MO). Plates were read using an automated ELISPOT reader (AID Classic ELISpot Reader).
Statistical analyses of data were performed with GraphPad Prism version 6 software. To determine the Kd, binding, and half-life values, we performed a nonlinear regression curve fit (One-Site, Specific binding). […]

A further test deals with CTL 4003. Description: IFN-γ ELISPOT with Tp9-specific CTL line 4003. Format: cell-based, cattle. To be noted: Fig. 3A; alanine/glycine-substituted peptides; 2.5 × 10^4 CD8+ cells/well, 20 h 37°C; reduced = SFU >15% lower than Tp9_67–75.
Description: as §1, with “Cells were maintained in RPMI 1640 culture medium (Sigma-Aldrich) containing 10% heat-inactivated FCS (Life Technologies), 2 mM L-glutamine (Sigma-Aldrich), 1 mg/ml gentamicin (Carl-Roth), 100 UI/ml penicillin (Sigma-Aldrich), 100 mg/ml streptomycin (Sigma-Aldrich), 2-ME (BDH, final concentration: 50 μM ([39]); a detailed description of our protocols can be found in Ref. [40]).” left out, “Cells were incubated at 37°C in a 5% CO2 humidified atmosphere. Both CTLs recognize the Tp9 Ag. CTL clone 8 was derived from the CTL 495 by limiting dilution.” left out
IFN-γ ELISPOT assay was performed as previously described ([34]). […] Release of IFN-γ was monitored with primary rabbit polyclonal anti-bovine IFN-γ Ab (Sigma-Aldrich, St. Louis, MO, USA) and secondary alkaline phosphatase–conjugated monoclonal anti-rabbit IgG (cat # A2556; Sigma-Aldrich, St. Louis, MO). […]

For test [3], the target named is BoLA-1*023:01 MHC class I molecule with bovine β2-microglobulin (bovine) (UniProt P01888). Description: ELISA. The source holds these as a separate data set.

“Tp9A5 peptide (Tp9_(67–75) Muguga with alanine at position 5)”: in test [1], the dissociation constant (Kd) (commonly the constant that tells how readily two partners part at equilibrium) stood at 23 nM.

Turning to “Tp9A6 peptide (Tp9_(67–75) Muguga with alanine at position 6)”, the Kd in test [1] came to 16.6 nM.

As for “FPGMKKSK [Tp9_69–76, Tp9 peptide with 2 aa deleted at the N-terminal end]”, the “Peptide binding to BoLA-1*023:01 (folding in ELISA), in words” value in test [2] is listed as “no folding can be measured”.

Turning to “AKFPGMKK [Tp9_67–74, 8-mer Tp9 peptide with 2 aa deleted at the C-terminal end]”, the “Peptide binding to BoLA-1*023:01 (folding in ELISA), in words” value in test [2] is “showed binding”. For the same substance, the “IFN-γ ELISPOT stimulation of CTL 495, in words” value in the test with CTL 495 is “capacity to stimulate”.

As to “Tp9A9: Tp9_67–75 Muguga with alanine substitution at position 9 (AKFPGMKKA)”, the “IFN-γ ELISPOT response of CTL 4003 vs Tp9_67–75 Muguga, in words” value in the test with CTL 4003 is “enhanced stimulation”. Also, the equilibrium dissociation constant (Kd) in test [2] (Fig. 2 lower panel, alanine-substituted Tp9_67–75) is 15 nM. In addition, the “IFN-γ ELISPOT response of CTL 495 vs Tp9_67–75 Muguga, in words” value in the test on CTL 495 is listed as “enhanced stimulation”.

As for “Tp9A4 peptide (Tp9_(67–75) Muguga with alanine at position 4)”, the dissociation constant Kd in test [1] is 28 nM.

With Tp9_(67–75) Muguga epitope peptide, the results for the Kd in test [1] and in test [3] were 13.9 nM and 29.7 nM, respectively.

Turning to “Tp9G1: Tp9_67–75 Muguga with glycine at position 1 (GKFPGMKKS)”, the “IFN-γ ELISPOT response of CTL 4003 vs Tp9_67–75 Muguga, in words” value in the test on CTL 4003 was “enhanced stimulation”. Also, in test [2] (Fig. 2 upper panel, alanine/glycine-substituted Tp9_67–75), the Kd was determined as 13.4 nM. In addition, in the test on CTL 495, the “IFN-γ ELISPOT response of CTL 495 vs Tp9_67–75 Muguga, in words” value is reported as “enhanced stimulation”.

As to “Tp9A2 peptide (Tp9_(67–75) Muguga with alanine at position 2)”, in test [1], the Kd was 192 nM.

In turn, BoLA-1*023:01 control peptide returned a dissociation constant (Kd) in test [1] of 6.94 nM.

For “AKFPGMKKSK [Tp9_67–76, 10-mer peptide from the T. parva (Muguga) Tp9 Ag]”, the “Peptide binding to BoLA-1*023:01 (folding in ELISA), in words” value in test [2] is reported as “showed binding”. In addition, the “IFN-γ ELISPOT stimulation of CTL 495, in words” value in the test with CTL 495 was “capacity to stimulate”.

In test [1], “Tp9A7 peptide (Tp9_(67–75) Muguga with alanine at position 7)” came in with a dissociation constant (Kd) of 10.1 nM.

In the case of “Tp9A3 peptide (Tp9_(67–75) Muguga with alanine at position 3)”, the Kd in test [1] amounted to 86.2 nM.

As to “Tp9A9 peptide (Tp9_(67–75) Muguga with alanine at position 9)”, in test [1], the Kd was found to be 15 nM.

The substance “Tp9A8 peptide (Tp9_(67–75) Muguga with alanine at position 8)” displayed an equilibrium dissociation constant (Kd) in test [1] of 2.58 nM.

In the case of “Tp9G1 peptide (Tp9_(67–75) Muguga with glycine at position 1)”, the Kd in test [1] was 13.4 nM.

With “KFPGMKKSK [Tp9_68–76, Tp9 peptide with 1 aa deleted at the N-terminal end]”, the “Peptide binding to BoLA-1*023:01 (folding in ELISA), in words” value in test [2] is given as “no folding can be measured”.
